Experimental findings from patent US20120172306A1, “Use of HASF as a Protective Agent Against Ischemic Tissue Damage” (Duke University, priority 2009, published 2012) are described below.

In experiment [1] the test system is adult rat cardiomyocytes. Briefly: Mitochondrial permeability transition pore (mPTP) channel opening after hypoxia/reoxygenation. Format: cell-based. The note with it: HASF (100 nM) prior to hypoxia/reoxygenation, vs control untreated samples. As for the experimental part: FIG. 2D is a series of photomicrographs and a bar graph showing that HASF protects from mPTP channel opening and cell death after ischemia and reperfusion. Adult rat cardiac myocytes were cold-loaded with fluorescent calcein and CoCl2 and subjected to 3-5 h of ischemia followed by 30-60 min reperfusion. Mitochrondria were counterstained with TMRM. Under these conditions increased calcein intensity (green) indicate the entrapped calcein in mitochrondria which is due to reduction of open mPTP channels. Upper panel: Representative images of cells subjected to 3 h ischemia, 60 min reperfusion and cells treated with 100 nM HASF prior to 3 h ischemia, 60 min reperfusion. Lower panel: Quantitative fluorescence analysis of images represented above. The percentage of Calcein intensity was normalized to mitotracker, mitochondrial, intensity and the value was inverted and presented as of mPTP channel opening. Data are presented as means±stdev of values estimated from 8 images per condition.
FIG. 4D is a bar graph and a photomicrograph showing the effect of recombinant protein, HASF on mPTP channel as imaged by confocal microscopy. […] The presence of PKCepsilon inhibitor peptide caused the opening of the mPTP channel as observed by decreased (quenched) calcein intensity. The bar graph depicts measured fluorescence of calcein versus mitotracker intensity under different conditions. […]

Experiment [2] relates to primary embryonic rat neurons. Kind of experiment: Caspase 9 assay in H2O2 challenged primary neurons. Type of experiment: cell-based. Particulars: H2O2 (50 μM) 30 min. As for the experimental part:
FIG. 2E is a bar graph showing caspase activity in primary neurons. Embryonic rat neuronal cells were pre-incubated ±100 nM of HASF recombinant protein for 30 min, and then challenged with 200 μM of H2O2 […]. Apoptosis was determined by caspase 9 levels. The results from two independents experiments are shown. ** P<0.01. Data are presented as means±standard deviation of triplicates.
FIG. 4E is a bar graph showing relative caspase activity in primary neurons. Apoptosis as determined by detection of Caspase-9 activity on primary neuron pre-treated with 178 μM PKC translocation inhibitor peptide for 10 minutes and then with 100 nM of HASF for 30 minutes. Thereafter, cells were challenged with 200 μM H2O2 for 3 hours. All samples were measured in replicas N-4 and the experiments was repeated twice. *P<0.05 vs. non-HASF treated cells.
Embryonic rat cortex tissue was purchased from Neuromics (Edina, Minn.). Primary neurons were isolated, cultured on poly-D-lysine coated glass slides according to provided instructions and allowed to grow for 5 days in complete neurobasal media. Cells were treated with PKC-epsilon inhibitor and recombinant protein HASF as described above for cardiomyocytes). For induction of stress the cells were challenged with H202 (50 μM) for 30 min followed by 3 hours of recovery at 37° C. […]

In experiment [3] the test system is rat myocardial infarction. Briefly: In vivo ischemia/reperfusion injury, fibrosis (Masson's trichrome). The note with it: 1 μg intramyocardial, 4 weeks after ischemia/reperfusion. As for the experimental part: FIG. 5C is a series of photographs and a bar graph showing fibrosis. For fibrosis analysis, animals were sacrificed 4 weeks after the initial ischemia/reperfusion injury and serial cryosections of 5 μm thick were made immediately below the ligation area, 10 sections for each heart were analyzed. HASF injected group N=8 rats. PBS injected control group N=6. Brilliant blue color stained collagen area was quantified using ImageJ computer software and the mean of % fibrosis was calculated as collagen positive area/total area. *** P<0.001.
Female Sprague-Dawley rats were used for all in vivo experiments. A midsternal thoracotomy was performed to expose the anterior surface of the heart after anesthesia. The proximal left […] coronary artery (LAD) was identified and a 6.0 suture (Ethicon) was placed around the artery and surrounding myocardium. […]
For fibrosis analysis, animals were sacrificed 4 weeks after the initial 30 min ischemia/24 h reperfusion injury and serial cyrosections of 5 μm thick were made immediately below the ligation area, 10 sections for each heart analyzed, and with 8 rats in HASF protein injected group and 6 rats in PBS injected control group. […] Brilliant blue color stained collagen area was quantified using ImageJ computer software and the mean of % fibrosis was calculated as collagen positive area/total area.

B1: HASF: Hypoxia regulated Akt MSC Factor, secreted protein encoded by C3orf58; recombinant human protein without N-signal sequence, SEQ ID NO:1 or 2 (protein, UniProt Q8NDZ4 36-430, looked up)
Divergent protein kinase …: LASWQRNELTDRRFLQLNKCPACFGTSWCRRFLNGQVVFEAWGRLRLLDFLNVKNVYFAQYGEPREGGRRRVVLKRLGSQRELAQLDQSICKRATGRPRCDLLQAMPRTEFARLNGDVRLLTPEAVEGWSDLVHCPSQRLLDRLVRRYAETKDSGSFLLRNLKDSERMQLLLTLAFNPEPLVLQSFPSDEGWPFAKYLGACGRMVAVNYVGEELWSYFNAPWEKRVDLAWQLMEIAEQLTNNDFEFALYLLDVSFDNFAVGPRDGKVIIVDAENVLVADKRLIRQNKPENWDVWYESKFDDCDKEACLSFSKEILCARATVDHNYYAVCQNLLSRHATWRGTSGGLLHDPPSEIAKDGRLEALLDECANPKKRYGRFQAAKELREYLAQLSNNVR
modifications: 6xHis tag
For B1, the mPTP channel opening result in experiment [1] is listed as “reduced compared to control untreated samples”. In addition, the “attenuation of Caspase 9 levels” value in experiment [2] (30 min pretreatment, P<0.05) is 20-40%. The “Caspase 9 levels in challenged neuronal cells” value in experiment [2] (HASF 30 min) was “significantly reduced”. Further, in experiment [3], the “reduction of infarct fibrosis compared to control untreated animals” value was 61% and the “scar (myocardial fibrosis)” value is 5.7±1.5 % of LV area.
